Test results taken from patent US8273705B2, “Conversion of apoptotic proteins” (The Burnham Institute, priority 2002, dated 2012).
Entries after “also recorded” stand apart in the source; their conditions may differ. Values belong to the molecule of their own block, whether it stands above or below them.

Target: T1, Bcl-2 (Homo sapiens, UniProt P10415)
T1 construct: expressed in transfected cells; host or cells: HEK293T
Assay: Co-IP assay of TR3 mutants with Bcl-2 in HEK293T cells
Assay type: binding
Settings: GFP fusions co-transfected with Bcl-2 in HEK293T cells
Procedure: TR3/Bcl-2 interaction assays—Reporter gene assays using NurRE-tk-CAT in CV-1 cells, and GST pull-down assay were described previously (Li, et al. 2000 Science 289, 1159-1164). For the mammalian two-hybrid assays, CV-1 cells were co-transfected with pcDNA-Gal4TAD-TR3 or pcDNA-Gal4TAD-TR3/ΔDBD and pcDNA-Gal4DBD-Bcl-2/ΔTM along with a luciferase reporter gene driven by four copies of the Gal4-binding site. The cells were harvested and reporter gene activity was measured. For Co-IP assays, HEK293T cells were transiently transfected with various expression plasmids using a modified calcium phosphate precipitation method (Wu et al, 1997) in the presence of caspase inhibitors (zVAD-fmk) to prevent degradation of TR3 protein due to apoptosis. Cells were suspended in lysis buffer (50 mM Tris-HCl, PH7.4; 150 mM NaCl; 20 mM EDTA; 1% NP-40; 1 mM PMSF; 50 μg/ml Leupeptin; […]; 0.1 mM Na3VO4; and 1 mM DTT). Cells extracts were cleared by incubation with the Protein A/G plus Agarose beads (Santa Cruz) and then incubated with appropriate antibody and 30 μl of Protein A or G plus Agarose beads overnight at 4° C. Beads were then washed and boiled in Laemmli gel-loading solution before performing SDS-PAGE/immunoblotting using the following polyclonal or monoclonal antibodies: monoclonal mouse anti-GFP (Medical and Biological Laboratories), monoclonal mouse anti-HA (Roche Molecular Biochemicals), monoclonal mouse anti-FLAG (Sigma), monoclonal mouse anti-Myc (Santa Cruz), polyclonal rabbit anti-TR3 (Active Motif), or monoclonal mouse anti-Bcl-2 (Santa Cruz). Immunoreactive products were detected by chemiluminescence with an enhanced chemiluminescence system (ECL) (Amersham).
TR3/ΔDBD, which can constitutively reside on mitochondria, was also analyzed by co-immunoprecipitation (Co-IP) assay for its interaction with Bcl-2. GFP-TR3/ΔDBD was transfected into human embryonic kidney cell line 293T alone or together with a Bcl-2 expression vector. The expressed GFP-TR3/ΔDBD mutant protein as then precipitated by using either anti-Bcl-2 antibody or control IgG and detected by western blotting using anti-GFP antibody. The same membranes were also blotted with anti-Bcl-2 antibody to determine precipitation specificity and efficiency. Input represents 10% of total cell extract used in the precipitation assays.
Several TR3 mutants were analyzed to determine the domain of TR3 which interacts with Bcl-2. The TR3 mutants are schematically represented in FIG. 1. A Co-IP assay was performed, as described above. […] Cell extracts were prepared and incubated with anti-Bcl-2 antibody or control IgG for Co-IP assays. Lysates were immunoprecipitated by using either polyclonal rabbit anti-Bcl-2 antibody or control IgG. Cell lysates and immunoprecipitates were examined by immunoblotting using anti-GFP antibody. The same membranes were also blotted with anti-Bcl-2 antibody (Santa Cruz) to determine IP specificity and efficiency. […] This Co-IP was specific because Bcl-2 co-transfection was necessary. […] Thus, the DC1 region in the TR3 LBD is involved in the Bcl-2 interaction.
To further determine the interaction of DC1 with Bcl-2, a region of hydrophobic amino acids ([…]—SEQ ID NO: 1) was deleted from TR3/ΔDBD, and the resulting mutant (TR3/ΔDBD/Δ471-488) was analyzed for its interaction with Bcl-2. TR3/ΔDBD/[…], with eighteen amino acids from 471 to 488 in the DC1 region deleted from TR3/ΔDBD, TR3/ΔDBD/I483A (with Ile483 replaced with Ala) and TR3/ΔDBD/L487A (with Leu487 replaced with Ala) were analyzed for their interaction with Bcl-2 by in vivo Co-IP assay as described above.

T1 sequence (P10415 whole entry): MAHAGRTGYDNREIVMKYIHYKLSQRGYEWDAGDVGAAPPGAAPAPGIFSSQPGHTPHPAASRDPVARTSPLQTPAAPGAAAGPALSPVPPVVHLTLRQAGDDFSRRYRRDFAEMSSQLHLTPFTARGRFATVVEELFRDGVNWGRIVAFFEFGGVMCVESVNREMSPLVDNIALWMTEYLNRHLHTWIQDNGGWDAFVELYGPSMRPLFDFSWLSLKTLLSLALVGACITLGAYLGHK

interaction with Bcl-2 (Co-IP): co-precipitated with Bcl-2
B1: TR3/ΔDBD: TR3 mutant with the DNA binding domain removed; used as GFP fusion (protein)
chain: MPCIQAQYGTPAPSPGPRDHLASDPLTPEFIKPTMDLASPEAAPAAPTALPSFSTFMDGYTGEFDTFLYQLPGTVQPCSSASSSASSTSSSSATSPASASFKFEDFQVYGCYPGPLSGPVDEALSSSGSDYYGSPCSAPSPSTPSFQPPQLSPWDGSFGHFSPSQTYLVLHRLQCARGFGDWIDSILAFSRSLHSLLVDVPAFACLSALVLITDRHGLQEPRRVEELQNRIASCLKEHVAAVAGEPQPASCLSRLLGKLPELRTLCTQGLQRIFYLKLEDLVPPPPIIDKIFMDTLPF
modifications: left off: large carriers; small tags and cut ends
notes: used as GFP fusion

B2: TR3/ΔDBD/Δ471-488: TR3/ΔDBD with eighteen amino acids from 471 to 488 in the DC1 region deleted (protein)
chain: MPCIQAQYGTPAPSPGPRDHLASDPLTPEFIKPTMDLASPEAAPAAPTALPSFSTFMDGYTGEFDTFLYQLPGTVQPCSSASSSASSTSSSSATSPASASFKFEDFQVYGCYPGPLSGPVDEALSSSGSDYYGSPCSAPSPSTPSFQPPQLSPWDGSFGHFSPSQTYLVLFSRSLHSLLVDVPAFACLSALVLITDRHGLQEPRRVEELQNRIASCLKEHVAAVAGEPQPASCLSRLLGKLPELRTLCTQGLQRIFYLKLEDLVPPPPIIDKIFMDTLPF
modifications: left off: large carriers; small tags and cut ends
notes: TR3/ΔDBD with eighteen amino acids from 471 to 488 in the DC1 region deleted
interaction with Bcl-2 (Co-IP): significantly impaired the interaction; also recorded: very weak interaction
